Reference: the nanobody polyreactivity screen of Harvey et al. (2022)

Experiment: yeast display, Sf9 membrane polyspecificity reagent, FACS + sequencing; frameworks hold sequencing errors
Procedure, shortened: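 Galactose-induced (36–48 hours) yeast carrying a synthetic nanobody display library were exposed to 10% biotinylated, detergent-solubilized Sf9 membrane reagent at 4 °C for 1 hour. FACS followed streptavidin microbead enrichment, using low and high (top ~1%) gates for expression (anti-HA) and reagent binding (streptavidin). Colony PCR, MiSeq 2 × 250 sequencing and CDR-length filtering followed. Labels for polyreactivity reflect the gate of origin.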

Sequence | polyreactivity (PSR sort gate)
QVQLVESGGVLVQAGGSLRLSCAASGSTSYNNAMGWYREAPGKEREFVAAISSNGDRTYYADSVKGRFTISRDNPKNTVYLLMNSLKPEDTAVFYCAVRSWYNYEWGQGTQVTVSS | high polyreactivity
QVQLVESGGVLVQAGGSLRLSCAASGYIFSLNGMGWYRQAPGKERELVAAITVSGGRTYYADSVKGRFTISRDNAKNTVYLQMNSLKPEDTAVYYCAKRGKYSYWPYYKYDYWGQGTQVTVSS | high polyreactivity
QVQLVESGGVLVQAGGSLRLSCAASVFIFPYYAMGRYRQEPGKEMELVAAISSGGITNYADSVKGRFTISRDNSKNTVYLQMNSLKPEDTAVYYCAAKRRVGNFRYGYWGQGTQVTVSS | high polyreactivity
QVQLVESGGVLVQAGGSLRLSCAAYGSNFVRNGMGWYRQAPGKEREFVASITSGTITYYADSVKGRFTISRDNAKNTVYLQMNSLKPEDTAVYYCNAGCRSSRFKRPYFRERNYWGQGTQLTVSS | high polyreactivity
QVQLVESGGVLVQAGGSLRLSSAASGGTFWYYAMGMYRQEPGKERELVASISRGGSTNYADSVKGRFTISRDKAKHTVDLQMNRLKPEDTAVYYCIAGLRVGPRRYVDYEYDYWGQGSQVTVSS | low polyreactivity
QVQLVESGGVLVQAGGSLRLTCAASGRIFQNYAMGWYRQAPAKERELDATISSGVSTYYADSVKGRFTISRDNAKNTVYLQMNSLKPEDTAVYYCAAYVPWFEMDYWGQGTQVTVSS | low polyreactivity
QVQLVESGGVLVQAGGSLRLTCAASGSTFLYNAMGWYRQAPGKEREFVAAISGSGGTTYYADSVKGRFTISRDNAKNTVYLQMNSLKPEDTAVYYCAVSQSWYWYYASDYWGQGTQVTVSS | low polyreactivity
QVQLVESGGVLVQARVSLRLSCAASGLTIYYYAMGWYRQAPGQERELVAAITWRGGSTYYADSVKGRFTISRDNEKNTVYLQMISLKPEVTAVYYCAADPGPYGYYYWGLGTQVTVSS | low polyreactivity
QVQLVESGGVLVQSGGSLRLSCAASGFIFYDYAMGWYRQAPGKEREMVAAITSGGSTYYADSVKGRFTISRDNAKNTVYLQMKSLKPEDTAVYYCAADAYNLDDDTYDYWGQGTIVTVSS | low polyreactivity
QVQLVESGGWLVQAGGSLRLRCAASGRIFSRYAMGWYRQAPGKEWELVAAISWSGGSTYYADSVKGRFTISRDNAKNTVYLQMNSLKPEDTAVYYCAAKRQYTEYNYWGQGSQVTVSS | high polyreactivity
QVQLVESGGWLVQAGGSLRLSCAASGSTFEDYVMGWYRQAPGTEREFVAAISRGSGSTYYADSVKGRFTISRDNAKNTVFLQMNSLKPEDTAVYYCAARSQLGYRTRYPTYYWGQGTQVTVSS | high polyreactivity
QVQLVESGIGLVQAGGSLSLSCAASGFNLDTYGMGWYRQAPGKERELVAAISQSDVSTYYADSVKGRFTISRDNAKNTVYLQMNSLKPEDTAVYYCAADRGGLRWFWQVLYEYWGQGTQVTVSS | low polyreactivity
QVQLVESGLGLVQAGGSLRISCAASGRIFYYNAMGWYRQAPGKERELVARIRRSGGRTYYADSVKGRFTISRDNAKNTVYLLMNSLKPADTAVYYCAARRQGRSGNGSWGQGTQVTVSW | high polyreactivity
QVQLVESGLGLVQEGGCLRVSCAASGSIFSHYAMGWDSQAPGKDREVVAAITGGGITYYADSVKGRFTISRDNAKNTVYLQMNSLIPEDTAVYYWATDSLIFTIFDYSGQGTQVTVSS | low polyreactivity
QVQLVESGPGLVQAGVSLRLSCAASGSIFAYYAMGWYRQAPGKERELVAAISSRGGNTYYADSVKGRFTISRHYAKNSVYLQMNSLKPEDTAVYYCAADYQYSYGEYDYWGQGTQVTVSS | high polyreactivity
QVQLVESGQGLVQAGGSLRLSCAASGFTFWGYTMGWYRQAPGKERELVAGITLSGGSTYYADSVKGRFTISRDNAKNTVYLEMNSLKPEDTAVYYCAAKPYQVSSYDFSLRDYWGQGTQVTVSS | low polyreactivity
QVQLVESGRGIVQAGGSLRLSCAASGSIFLHNAMGWYRQAPGKETELVAAITGSGGYTYYADSVKGRFTISRDNPKNTVYIQMNSRQPEDTAVYYCAACSRSRYYRYVYYQYVTMDYWGQGTQETVSS | high polyreactivity
